In assay [1] the target is T1, human ABCG2 (human, UniProt Q9UNQ0 1-655).
T1 construct: also called hG2; KPG2
T1 sequence: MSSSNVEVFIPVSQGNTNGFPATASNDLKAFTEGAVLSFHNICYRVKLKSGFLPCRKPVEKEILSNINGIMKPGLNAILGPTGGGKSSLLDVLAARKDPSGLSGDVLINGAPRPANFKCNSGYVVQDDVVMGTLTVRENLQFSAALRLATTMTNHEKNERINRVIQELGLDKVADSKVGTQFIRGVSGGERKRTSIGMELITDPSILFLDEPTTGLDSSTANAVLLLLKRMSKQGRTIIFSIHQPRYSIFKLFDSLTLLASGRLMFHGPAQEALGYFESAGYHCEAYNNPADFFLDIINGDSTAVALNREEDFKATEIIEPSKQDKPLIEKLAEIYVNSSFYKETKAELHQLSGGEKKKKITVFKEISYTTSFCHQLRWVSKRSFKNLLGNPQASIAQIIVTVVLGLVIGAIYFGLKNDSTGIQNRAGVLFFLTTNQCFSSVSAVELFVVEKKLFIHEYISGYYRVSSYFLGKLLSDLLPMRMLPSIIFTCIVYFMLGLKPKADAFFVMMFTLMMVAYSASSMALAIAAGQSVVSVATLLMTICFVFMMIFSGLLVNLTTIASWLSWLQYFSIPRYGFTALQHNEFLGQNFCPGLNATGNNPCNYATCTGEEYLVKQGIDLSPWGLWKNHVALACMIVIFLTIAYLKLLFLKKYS
In words: flow cytometry (FACS) on 293T_ABCG2_OX cells. A general note: A flow cytometer gives signals particle by particle.

For assay [2], the target named is T2, cynomolgus ABCG2 (Macaca fascicularis) (Macaca fascicularis (cynomolgus), UniProt Q5MB13 1-654 (rhesus entry)).
T2 construct: also called cABCG2
T2 sequence: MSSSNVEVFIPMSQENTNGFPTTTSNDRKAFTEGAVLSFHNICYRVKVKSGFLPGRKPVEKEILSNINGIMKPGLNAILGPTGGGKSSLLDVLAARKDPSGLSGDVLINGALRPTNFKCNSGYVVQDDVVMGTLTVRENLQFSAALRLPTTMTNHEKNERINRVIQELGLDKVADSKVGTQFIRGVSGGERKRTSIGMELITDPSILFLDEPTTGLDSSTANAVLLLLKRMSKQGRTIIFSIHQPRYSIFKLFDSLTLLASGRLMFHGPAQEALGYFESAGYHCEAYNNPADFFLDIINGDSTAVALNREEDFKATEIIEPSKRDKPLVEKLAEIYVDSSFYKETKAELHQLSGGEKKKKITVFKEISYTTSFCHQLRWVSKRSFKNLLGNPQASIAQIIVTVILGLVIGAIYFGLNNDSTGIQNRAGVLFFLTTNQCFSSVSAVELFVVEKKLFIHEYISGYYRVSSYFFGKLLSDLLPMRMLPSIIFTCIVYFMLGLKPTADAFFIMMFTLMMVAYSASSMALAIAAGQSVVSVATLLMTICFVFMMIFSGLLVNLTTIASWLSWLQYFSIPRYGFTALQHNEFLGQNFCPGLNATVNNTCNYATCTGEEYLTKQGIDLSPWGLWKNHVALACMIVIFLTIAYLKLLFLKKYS
In words: flow cytometry on cells expressing cynomolgus ABCG2; paragraph 395: non-significant binding = -.
Experimental: (§1) Cell Binding Assays. Antibody binding to cells was evaluated by flow cytometry. […] After incubating cells on ice for 30 min, cells were washed twice with flow cytometry buffer. Bound antibody was detected with PE-labeled F(ab′)₂ fragment goat anti-human IgG (Jackson ImmunoResearch) and evaluated on an Attune NxT flow cytometer.

Assay [3] addresses T1, human ABCG2. In words: cell-based or functional assay.
Assay [4] has as its target T1, human ABCG2. In words: flow cytometry titration on 293T_ABCG2_OX cells; column Affinity for human ABCG2 (nM).
Experimental: as §1
Assay [5] addresses T1, human ABCG2. In words: flow cytometry, 293T cells overexpressing human ABCG2.
Experimental: as §1
The target in assay [6] is T2, cynomolgus ABCG2 (Macaca fascicularis). In words: flow cytometry, 293T cells overexpressing cynomolgus ABCG2.
Experimental: as §1
Assay [7] shares this target. In words: flow cytometry on cells expressing cynomolgus ABCG2.
Experimental: as §1

For orientation: Kd means the constant that tells how readily two partners part at equilibrium. Read a low Kd as tighter binding.

B1: G2.256 mouse (antibody, human IgG1, V domains shown)
VH: EVQLQQSGPELVKPGASLKISCKTFGYSFTGYYMHWVKQSPEKSLEWIGKIVPSTGGTTYNQKFKAKATLTVDKSSFTAYMQLKSLTSEDSAVYYCAREKVYGYDVYYFDYWGQGTTLTVSS
VL: DIVMSQSPATLSVTPGDRVSLSCRASQSISDYLHWYQQKSHESPRLLIKYASQSISGIPSRFSGSGSGSDFTLSINSVEPEDVGVYYCQNGHSFPWTFGGGTKLEIK
notes: Variable regions cloned onto human IgG1 constant heavy chain and human kappa constant light chain
In the case of B1, the results for the binding result (with human ABCG2 [1]; in assay [2]) were “binds” and “no binding”, respectively.

B2: G2.642 rat (antibody, human IgG1, V domains shown)
VH: QIQLVQSGAELVKPGASVKLSCKTSGFTFSSNYISWLRQKPRQSLEWIAWIYSGTGGTYYNQKFTGKAQLTIDTSSNTAYMQLSSLTSEDSAIYYCARHVGLRYWYFDVWGAGTSVTVSS
VL: DIVLTQSPASLTVSLGQRATISCRASESVDSNGNSFMHWYQQKPGQSPKVLIYRASNLESGVPARFSGSGSRTDFTLTINPVEADDVATYYCQQSNEDPWTFGGGTKLEIKR
For B2, in the assay with human ABCG2 [3], the “IC50 of topotecan cytotoxicity in the presence of the antibody” value (“IC50 of topotecan cytotoxicity” for short) came to 9.08 nM. The molecule further returned a Kd with human ABCG2 [4] of 48 nM. Also, in assay [2], the binding result is “no binding”.

B3: G2.255 mouse (antibody, human IgG1, V domains shown)
VH: EVMLVESGGALVKPGGSLKLSCAASGFTFSNNAMSWVRQTPETRLEWVATITGGGSYTYYPDSVKGRFTISRDNARNTLYLQMSSLRSEDTATYYCASPDGNYEGVLAYWGQGTLVTVSA
VL: DIQMNQSPSSLSASLGDRVTISCSASQGISNYLNWYQQKPDGTIKLLIYYTSTLHSGVPSRFSGSGSGTDYSLTISNLEPEDIATYYCQHYSSLPWTFGGGTKLEIK
notes: as for B1
With B3, the Kd in the assay with human ABCG2 [4] was found to be 363 nM. Moreover, the binding result in assay [2] is “no binding”.

B4: anti-ABCG2 antibody 5D3 (antibody, V domains shown)
VH: QVQLQESGPGLVKPSQSLSLTCTVTGFSITSDYAWNWIRQFPGKKLEWMGYINFDGGTTYNPSLRGRISITRDTSKNQFFLQLRSVTPEDTATYYCATFYGAKGTLDYWGQGTSVTVSS
VL: DIVLTQSPSSFSVSLGDRVTISCKASGYILNRLAWYQQKPGNAPRLLISGATSLETGFPSRFSGTGSGKDYTLSISSLQTEDVGTYYCQQYWSTPWTFGGGTKLEIK
notes: also called clone 5D3
With B4, in the assay with human ABCG2 [3], the “IC50 of topotecan cytotoxicity” value amounted to 0.3 nM. The molecule also came in with a dissociation constant (Kd) with human ABCG2 [4] of 5 nM.

B5: G2.640 (antibody, human IgG1, V domains shown)
VH: EVKLEESGPGLVQPSQTLSLTCTVSGFSLTSDGVSWVRQPPGKGLEWIAAISSGGSTYYNSALKSRLSISRDTSKSQVFLKMNSLQTEDTAIYFCTRDTYYGYNQIPFVYWGQGTLVTVSS
VL: DIVIIQSPPSLSASLGDKVTISCQASQNIHRYIAWYQQKPGKAPRLLIRYTSTLESGTPSRFSGSGSGRDYSFSISNVESEDIASYYCLQYVNLWTFGGGTKLELK
notes: Raised in rats
Consider B5, for which the binding result (with human ABCG2 [5]; in assay [6]) was “no binding” throughout. Besides, the “IC50 of topotecan cytotoxicity” value with human ABCG2 [3] was found to be 6.9 nM.

B6: G2.629 rat (antibody, human IgG1, V domains shown)
VH: EVQLVESGGGLVQPGRSLKLSCAASGFIFSRFYMAWVRQAPTKGLEWVAYINTGGGTTYYRDSVKGRFTISRDNAKTTLYLQMDSLRSEDTATYYCTTLAAPWNYVMDAWGQGASVTVSS
VL: DVVMTQSPSLLSASVGDRVTLTCKGSQNINNFLAWYQQKLGEAPKLLTYKTNSLHTGIPSRFSGSGSGTDYTLTISSLHSEDLATYYCYQYNNGYTFGPGTKLELK
notes: as for B1
B6: the binding result in assay [7] is recorded as “binds”. Further, the “IC50 of topotecan cytotoxicity” value in the assay with human ABCG2 [3] stood at 2.21 nM. The dissociation constant Kd with human ABCG2 [4] came out at 16.8 nM.

B7: G2.636 rat (antibody, human IgG1, V domains shown)
VH: EVKLVESGGGLVQPGRSLKLSCAASGFTFSRFYMAWVRQAPTKGLEWVAHISHGGDTTYYRDSVKGRFTISRDNAKSTLFLQMDSLRSEDTATYYCTTSAAPWNYVMDGWGLGASVTVSS
VL: DIVMTQSPSLLSASVGDRVTLTCKGSQNINNFLAWYQQKLGEAPKLLIYKTNSLHTGIPSRFSGSGSGTDYTLTISSLHSEDLATYYCYQYNNGYTFGAGTKLELK
notes: as for B1
As to B7, in assay [7], the binding result is recorded as “binds”. Also, the “IC50 of topotecan cytotoxicity” value with human ABCG2 [3] stood at 0.45 nM. The molecule also showed a Kd with human ABCG2 [4] of 17 nM.

B8: G2.631 rat (antibody, human IgG1, V domains shown)
VH: EVKLLESGGGLVQSGRSLKLSCAASGFIFSRFYMAWVRQAPRKGLEWVAYISNGAGSTYYRESVKGRFIISRDNAKSTLYLQMDSLRSEDTATYYCTTVAAPWNYVMDGWGQGASVTVSS
VL: NIQITQSPSLLSASVGDRVTLSCKGSQNINNYLAWYQQKLGEAPKLLIYKTNSLHTGIPSRFSGSGSGTDYTLTISSLHSEDLATYYCYQYNNGYTFGAGTKLELK
notes: also called G.631
For B8, the “IC50 of topotecan cytotoxicity” value in the assay with human ABCG2 [3] was 1.42 nM. Also, in the assay with human ABCG2 [4], the dissociation constant (Kd) was 14.2 nM.

B9: G2.641 rat (antibody, human IgG1, V domains shown)
VH: EVKLEESGGGLVQPGRSLKLSCAASGFTFSRFYMAWVRQAPTKGLEWVAHISHGGDTTYYRDSVKGRFTISRDNAKSTLFLQMDSLRSEDTATYYCTTSAAPWNYVMDGWGLGASVTVSS
VL: DIQMTQSPSLLSASVGDRVTLTCKGSQNINNFLAWYQQKLGEAPKLLIYKTNSLHTGIPSRFSGSGSGTDYTLTISSLHSEDLATYYCYQYNNGYTFGAGTKLELK
notes: as for B1
Take B9: the binding result in assay [7] is “binds”. For the same molecule, the “IC50 of topotecan cytotoxicity” value with human ABCG2 [3] stood at 1.04 nM. In addition, binding with human ABCG2 [4] was characterised by a dissociation constant (Kd) of 23 nM.

B10: G2.643 mouse (antibody, human IgG1, V domains shown)
VH: VNLVESGPELVKPGTSVKISCKASGYRFTSYYVHWVKQRPGQGLEWIGWIFPGSDNTKYNEKFKGKATLTADTSSSTAYMQLSSLTSEDSAVYFCASIYYGYDGTLYFDYWGQGTSVTVSS
VL: DIVMTQSHTFMSTSVGDRVSVTCKASQNVGNNVAWYQQKPGQSPNALIYSASYRYSGVPDRFTGSGSGTDFTLTISNVQSEDLAEYFCQQYDRYPLTFGGGTKLEIK
notes: Recombinant antibody
In the case of B10, the binding result (with human ABCG2 [5]; in assay [6]) was “binds” each time.

B11: G2.748 rat (antibody, V domains shown)
VH: QVSLKESGPGMLQPSKTLSLTCSFSGFSLSTSGMVVNWIRQPSGKSLEWLAAIDWDGDKYYNPSLKHRLTVSKDTSNTQVVLKITSVDTADTATYYCARSIAPYRGWFGYWGQGTLVTVSS
VL: EIVLIQSPSSLPASLGERVTIICRASQDIGNNLNWYQQKPDGTIKPLIYFTSNFQSGVPSSFSGSRSGTDFSLTISSLEAEDFAMYYCQQDASLPWTFGGGTKLEIK
As for B11, the binding result (with human ABCG2 [5]; in assay [6]) was “binds” each time.

B12: G2.760 rat (antibody, human IgG1, V domains shown)
VH: EVQLVESGGGLVQPGRSMKLSCAASGFTFSKSDMAWVRQAPTKGLKWVASIRYDGGNTYYRDSVRGRFTISRDNAKSTLYLQMDSLRSEDTATYYCSTAKAAISTPSYYVLDAWGQGASVTVSS
VL: DIGMTQSPTSMSKSVGDRVTMNCKASQNVGSNVDWFQQKTGQSPKLLIYKSSNRYTGVPARFTGSGSGTDFTFTISNMQAEDLAVYYCMQSNSYPPTFGGGTKLELK
Take B12: the binding result (with human ABCG2 [5]; in assay [6]) was “binds” throughout.

The record behind these values is US20230212305A1 (published 2023).
